# Measurements as given in article doi:10.1101/2024.09.11.612445 (bioRxiv, 2024).
# T1: recombinant CSTF3 21-549 (human, UniProt Q12996 21-549)
# T1 sequence (looked up): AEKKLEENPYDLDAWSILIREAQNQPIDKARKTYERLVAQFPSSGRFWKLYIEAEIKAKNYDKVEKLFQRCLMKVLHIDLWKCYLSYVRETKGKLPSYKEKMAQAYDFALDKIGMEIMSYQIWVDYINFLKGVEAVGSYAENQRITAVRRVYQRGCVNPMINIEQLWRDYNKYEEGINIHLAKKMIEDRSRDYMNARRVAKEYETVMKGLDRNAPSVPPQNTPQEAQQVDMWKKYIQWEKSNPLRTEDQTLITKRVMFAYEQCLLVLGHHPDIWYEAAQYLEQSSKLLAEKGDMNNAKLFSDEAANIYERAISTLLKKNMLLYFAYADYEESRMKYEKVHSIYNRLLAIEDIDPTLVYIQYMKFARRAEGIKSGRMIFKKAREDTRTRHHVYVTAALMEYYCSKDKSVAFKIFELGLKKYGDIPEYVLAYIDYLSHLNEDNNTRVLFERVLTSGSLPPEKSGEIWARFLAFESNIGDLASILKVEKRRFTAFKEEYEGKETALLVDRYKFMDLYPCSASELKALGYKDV
# Tests used:
# recombinant CSTF3 21-549 [1] = molecular target: T1, recombinant CSTF3 21-549; assay: pull-down
# recombinant CSTF3 21-549 [2] = molecular target: T1, recombinant CSTF3 21-549; assay: ITC
binding result (recombinant CSTF3 21-549 [1]),binding result (recombinant CSTF3 21-549 [2]),Binder
binds,,"GST-WDR33 431-485 wild-type (domain or fragment, human, UniProt Q9C0J8 431-485, looked up) DDLEPNSLAVIPGMGIPEQLKLAMEQEQMGKDESNEIEMTIPGLDWGMEEVMQKD"
,binds,"SPTVDDEEEMLYGDS (peptide, UniProt Q10570 737-751, looked up) [CPSF1 737-751 wild-type peptide]"
